Experiments:
breast cancer tissues = assay: IHC in a breast cancer cohort (primary tumors, metastases, NAT); design: species or system human
Description: FIG. 13. The HCMV US28 expression was studied by immunohistochemistry (IHC) and in situ hybridisation (ISH) in a breast cancer cohort. […] Most tumor cells in this sample stained positively for the US28-13-5G6-1D3 rAb (brown colour). […] C. […] The arrows point out some positive HCMV DNA signals in the figure. […] A colour version of FIG. 13 is provided on the page after the non-colour version.
FIG. 14. […] B. Most cancer cells in the same sample were negative for the MAB810R staining. C. […] The arrows point out such positive HCMV DNA signals. The HCMV DNA was not seen in the cytoplasm of the tumor cells. D. The negative control anti-IgG Ab staining for the same sample was negative. A colour version of FIG. 14 is also provided.
FIG. 15. The US28 staining and HCMV ISH were negative in many normal adjacent tumor (NAT) breast tissues as exemplified in the figure with the sample BR1008b_J6. […] C. […] D. The IgG staining was also negative. […] Thus, the samples are exposed to exactly the same staining conditions and antibody/DNA probe concentrations. […] A colour version of FIG. 15 is also provided.
FIG. 16. A. The IHC staining of the primary breast cancer samples with US28-13-5G6-1D3 rAb were specific and positive in ˜73% of the 41 studied primary breast tumor samples. […]

[1] = molecular target: T1, US28 of HCMV strain TB40/E on CHO cells (Human cytomegalovirus, UniProt P69332, A8T/D15E/E18L/V24T); assay: FACS binding to CHO cells expressing TB40/E form of US28; conditions: FIG. 21C
T1 construct: expressed in transfected cells; host or cells: CHO cells
Description: The plasmids carrying the DNA for the TB40/E, VHL/E, and Merlin constructs and mutated US28 strain (SEQ ID Nos: 254, 272, 273 and 255, respectively) were also manufactured in the similar manner.
Flowcytometry was used to analyze cell surface binding by the US28 antibodies. Upon cell harvest, adherent non-infected and US28 overexpressing or HCMV infected cells were washed three times with cell staining buffer (phosphate-buffered saline (PBS (Amresco, Cleveland, 44139, USA) added 0.5% BSA and 0.05% Sodium Azide (NaN3)). The cells were trypisinized and then resuspended in DMEM with 10% FBS to inhibit the action of trypsin. The cells were then pelleted at 400×g for 10 minutes and washed three times in cell staining buffer. Cell viability and cell concentration were measured by tryphan blue viability assay and a cell counter (Countess, Invitrogen, Carlsbad, CA 92008, USA). The cell suspension was adjusted to 1×10^6 cells/mL with ice-cold cell staining buffer. The cells were blocked in 1 ml 10% FBS or 1% BSA in PBS per 1×10^6 cells, vortexed briefly, and incubated for 10-30 minutes to eliminate non-specific staining. The cells were then stained with the respective antibodies and appropriate negative controls. […]

BSA = BSA (Bos taurus, UniProt P02769); assay: ELISA, BSA coating (control); type: binding; conditions: ECD1 subclones
Description: Microtiter plate wells were coated with 100 μl of the solution containing: (i) Bio-Peptide-N; or (ii) Bio-Peptide-1 and Bio-Peptide-2; at a concentration of between 1-10 μg/ml in coating buffer, consisting of Na2CO3, 1.5 g and NaHCO3, 2.93 g in 1 L of distilled water in pH 9.6, and then incubated for 1-2 hours at room temperature. The plate was washed 3 times in wash buffer consisting of PBS containing 0.05% v/v Tween-20 and blotted with paper towels thereafter. 150 μl of blocking solution containing Phosphate buffered saline (PBS) containing 1% w/v BSA, was added to each well and the plate was incubated for 2 hours at 37° C. The wells were washed 4 times in wash buffer and blotted on paper towels after the last wash. 100 μl of antibody dilution was added to each well and the plate was incubated for 1 hour at 37° C. and thereafter washed 3 times in wash buffer. 100 μl enzyme-conjugated secondary antibody (appropriately diluted in wash buffer) was added to each well and the plate was incubated for 1 hour at 37° C. The wells were then again washed 3 times in wash buffer and blotted with paper towels after the last wash. […] The absorbance values were read immediately at the appropriate wavelength and the data analyzed by Cmax Plus, Molecular Devices, San Jose, CA 95134, USA,

Sequence of BSA (P02769 25-607): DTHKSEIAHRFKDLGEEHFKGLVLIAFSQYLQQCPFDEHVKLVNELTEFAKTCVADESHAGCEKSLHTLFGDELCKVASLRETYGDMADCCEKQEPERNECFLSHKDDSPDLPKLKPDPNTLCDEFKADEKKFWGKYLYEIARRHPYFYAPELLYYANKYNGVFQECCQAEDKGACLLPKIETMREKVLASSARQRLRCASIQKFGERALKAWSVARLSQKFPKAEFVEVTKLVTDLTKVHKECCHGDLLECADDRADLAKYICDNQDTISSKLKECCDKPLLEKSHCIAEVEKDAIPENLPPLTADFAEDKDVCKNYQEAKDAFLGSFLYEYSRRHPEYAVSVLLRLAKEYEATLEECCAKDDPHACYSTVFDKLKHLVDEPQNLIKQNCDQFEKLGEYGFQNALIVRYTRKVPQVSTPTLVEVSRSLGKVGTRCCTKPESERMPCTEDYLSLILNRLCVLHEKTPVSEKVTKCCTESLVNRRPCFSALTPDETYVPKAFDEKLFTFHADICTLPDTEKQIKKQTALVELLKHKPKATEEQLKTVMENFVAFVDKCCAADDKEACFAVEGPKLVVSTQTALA

B1: US28-13-5G6-1D3: monoclonal antibody against ECD3 of HCMV US28; VH SEQ ID NO: 12, VL SEQ ID NO: 18; rAb is the recombinant product (antibody, V domains shown)
VH: EVKLVESGGGLVQPGGSLRLACATSGFTFTDYYMSWVRQPPGKALEWLGFIRSKANGYTTEYSASVKGRFTISRDNSQSILYLQMNTLRSEDSATYYCARDERRTAWLAYWGQGTLVTVSA
VL: DVLMTQTPLSLPVSLGDQASISCRSSQSIVHSNGNTYLDWYLQKPGQSPKLLIYKVSNRFSGVPDRFSGSGSGTDFTLKISRVEAEDLGVYYCFQGSHVPTWTFGGGTKLEIK
modifications: Mature form of VH sequence of 1D3, without the leader sequence; Mature form of VL sequence of 1D3, without the leader sequence
notes: monoclonal antibody against ECD3 of HCMV US28; rAb is the recombinant product
With B1 the “staining of TNBC (n=7) and HER2 positive (n=11) metastases” value (breast cancer tissues; all samples) was “positive” and the “number of negative metastasis samples” value (breast cancer tissues; hormone receptor positive cancers, of 30 metastases) was 2.

B2: 13-5G6-1D3: mouse monoclonal IgG1 kappa antibody against US28 ECD3; VH SEQ ID NO: 12, VL SEQ ID NO: 18 (antibody, V domains shown)
VH: B1 VH
VL: B1 VL
modifications: Mature form of VH sequence of 1D3, without the leader sequence; Mature form of VL sequence of 1D3, without the leader sequence
In the case of B2, the “% change in absolute levels of binding between DB and TB40/E forms of US28” value [1] is reported as “less than 10%”.

B3: 7B1F3: mouse IgG1 kappa antibody against US28 ECD1 Peptide-N; VH SEQ ID NO: 211, VL SEQ ID NO: 213 (antibody, V domains shown)
VH: EVQLQQSGAELAKPGASVKMSCKASGYTFTNYWMHWVKQRPGQGLEWIGYVNPRTGYTEYNQKFKDKATLTADKSSRTAYMQLSSLTSEDSAVYSCARILNGTGFAYWGQGTLVTVSA
VL: DIVLTQSPSSLTVSVGEKFTMSCKSSQSLLYSSNQKNYLAWYQQKPGQSPKLLIYWASTRESGVPDRFTGSGSGTDFTLAISSVKPEDLAIYYCQQYYSFPLTFGAGTKLEIK
modifications: Mature form of VH sequence of 7B1F3, without the leader sequence; Mature form of VL sequence of 7B1F3, without the leader sequence
For B3, the “absorbance, Coating: BSA” value (BSA) was 0.0474.
